Consider eight molecules from paper PMC8133395 (Cell reports, 2021).

First the molecules themselves.
B1: EBOV-442 (recombinant IgG1) (antibody, V domains shown)
VH: EVQLVESGGGLVKPGGSLRLSCTGSGGTGFTFKYAGMSWVRQAPGKGPEWIGRIKSRIDGGTTDYAAPVKDRFIVSRDDSRNTLYLQMNSLKTEDTAVYYCATGSGKGPSASFGESYYYYDFINVWGKGTTVTVSS
VL: ESVLTQSPGTLSLSPGERATLSCRASQSISRKYLAWYQQKPGQAPRLLIYGSSSRATGIPDRFSGSGSGTDFTLTISRLEPEDFAVYYCHQYESSPWTFGQGTKVEIK
notes: IgG1; source: ExpiCHO, transiently transfected, purified (HiTrap MabSelect Sure)
B2: BDBV-289 (recombinant IgG1) (antibody, V domains shown)
VH: QVQLVQSGAEVKKPGSSVKVSCKASGATFGSDTVTWVRQAPGQGLEWMGGIIPFFGEANYAQRFQGRVTITADKSTNTAYMELSSLRSEDTAVYFCARQINEMATFGEIHYYTYMDVWGQGTLVTVSS
VL: GSELTQDPAVSVALGQTVRITCQGDSLRNYYASWYQQKPRQAPVLVFYGKNNRPSGIPDRFSGSSSGNTASLTISGAQAEDEADYYCNSRDSSSNHLVFGGGTKLTVL
notes: IgG1; source: FreeStyle-293-F, transiently transfected, purified (mAb Select, SEC)
B3: EBOV-293 (recombinant IgG1) (antibody, V domains shown)
VH: QVQLVQSGAEVKKPGSSVKVSCKASGGTFIDYTYNWVRQAPGQGLVWMGRVVPGLGLSSYAQQFEDRVTITAAKSTSTVYMELRGLTSEDTAMYYCARDTASFGWLPFAFWGQGTLVTVSS
VL: QTVMTQSPGTLSLSPGERATLSCGVSQSISSTYFAWYQQKVGQAPRLLIYGASNRASGIPDRFSGSASGTDFTLTISRVEPEDFAVYYCQQYGSSPTFGQGTRLEIK
notes: source: FreeStyle-293-F, transiently transfected, purified (mAb Select, SEC)
B4: EBOV-296 (recombinant IgG1) (antibody, V domains shown)
VH: QVQLVESGPGLVKPSQTLSLICTVSGGSISSGDFYWSWIRQPPGKGLEWIGFFYYSGITYYNPSLKSRVSISRDTSTNQFSLKLRSVTAADTAVYYCARVRGGRITLGQGDMYYYSGMDVWGQGTLVTVSS
VL: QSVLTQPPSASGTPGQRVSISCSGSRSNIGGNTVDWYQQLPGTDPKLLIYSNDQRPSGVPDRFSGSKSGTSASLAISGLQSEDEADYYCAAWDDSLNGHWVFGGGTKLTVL
notes: as for B3
B5: BDBV-329 (recombinant IgG1) (antibody, V domains shown)
VH: QVQLVQSGAEVKKPGSSVKVSCKASGGTFDTYAISWVRQAPGQGLEWMGGIIPVLGIVDYAQKFQGRVTITAAKFTNIAYMELSSLRSEDAAVYYCARGLRSLSPRGQEGPTPAPGWRRAQYHYYYMDVWGTGTLVTVSS
VL: EIVMTQSPGTLSLSPGERATLSCRASQSVSSNYLAWYQQKPGQAPRLLIYGASSRATGIPDRFSGSGSGPDFTLTISRLEPEDFAVYYCQQYGSSPGTFGGGTKVEIK
notes: IgG1; also called BDB-329; source: ExpiCHO, transiently transfected, purified (HiTrap MabSelect Sure)
B6: EBOV-437 (recombinant IgG1) (antibody, V domains shown)
VH: QVQLVQSGAEVKKPGSSVKVSCKASGGTFSRDIFSWVRQAPGQGLEWMGGIIPIFGTANYAQKFQGRVTITADKSTSTVFMELSGLRSEDTAVYFCARGPPLRGERSWFGESEKYDYFYMDVWGKGTTVTVSS
VL: QIVLTQSPGTLSLSPGERATLSCRASQSVSNSYLAWYQQKPGQAPRLLIYGASSRATGIPDRFSGSGSGTDFTLSISRLEPEDFAVYYCQQYGTSPCTFGQGTKLEIK
notes: as for B1
B7: EBOV-237 (recombinant IgG1) (antibody, V domains shown)
VH: QVQLQESGPGLVKPSGTLSLTCAVSGGSISNGIWWSWVRQPPGKGLEWIGEIYHSGSTNYSPSLKSRVTISLDKSKNQFSLKLNSVTAADTAVYYCARAPSQFDFSDWLVPQGAMFRGHYIDYWGQGTLVTVSS
VL: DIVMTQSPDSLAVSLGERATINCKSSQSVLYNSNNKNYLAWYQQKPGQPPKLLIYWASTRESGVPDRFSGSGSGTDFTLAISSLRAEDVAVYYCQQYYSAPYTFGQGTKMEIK
notes: as for B1
B8: BDBV-43 (recombinant IgG1) (antibody, V domains shown)
VH: QVQLVQSGAEVKKPGSSVKVSCRASGDSFSRKYGISWVRQAPGQGFEWMGTIMPIVGLTTSAQKFQGRVTITADKSTSTAHMELNSLTSEDTAIYYCARDEIIGARPHWFDSWGQGTLVTVSS
VL: EIVMTQSPAIMSVSPGKRATLSCRASQSVSSNLAWYQRKPGQAPRLLIYGSSTRATGIPARFSGSGSGTEFTLTISSLQSEDFAVYYCLQYYNWPRTFGQGTKVEIK
notes: as for B3

T1 sequence (P60170 33-314): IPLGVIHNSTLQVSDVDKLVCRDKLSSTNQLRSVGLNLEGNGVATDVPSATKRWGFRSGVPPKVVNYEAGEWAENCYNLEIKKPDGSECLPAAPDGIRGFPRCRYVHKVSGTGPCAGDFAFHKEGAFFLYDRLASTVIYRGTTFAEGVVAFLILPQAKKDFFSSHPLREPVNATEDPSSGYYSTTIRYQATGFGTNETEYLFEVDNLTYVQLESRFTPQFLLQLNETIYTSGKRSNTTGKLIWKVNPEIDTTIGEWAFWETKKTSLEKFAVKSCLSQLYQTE

This experiment addresses T1, EBOV sGP (Mayinga) (Zaire ebolavirus, Mayinga, GenBank …, UniProt P60170).
T1 construct: source: FreeStyle-293-F, transiently transfected, purified (Strep-Tactin, SEC)
Put plainly: ELISA. Conditions: both partners purified.
With B1, the binding result is recorded as “binds”.

On to B2, for which the binding result is given as “binds”.

Regarding B3, the binding result is “binds”.

Consider B4, for which the binding result is recorded as “binds”.

In the case of B5, the binding result is listed as “binds”.

For B6, the binding result is listed as “binds”.

For the molecule B7, the binding result is on record as “binds”.

With B8, the binding result was “binds”.
